Data on one molecule can be found in US20250236663A1 (NEURACLE SCIENCE, published 2025).

Substitutions are numbered along the chain they refer to.

For experiment [1], the target named is T1, FAM19A5 fragment 5 mutant peptide F5-4 (#4) (human).
T1 construct: The entry already carries the alanine substitution and Ser for Cys; also called mutant peptide #4
Kind of experiment: ELISA on alanine-substituted F5 peptides (I16 to alanine). The protocol: Overlapping peptide fragments (F1-F6, see FIG. 9) of the human FAM19A5 protein were synthesized and conjugated to BSA. Binding of the different anti-FAM19A5 antibodies to the BSA-conjugated peptide fragments F1-F6 was determined by Western blot analysis or ELISA assay. For the Western blot analysis, BSA-conjugated FAM19A5 fragments F1-F6 were separated by SDS polyacrylamide gel electrophoresis and transferred to a nitrocellulose membrane by the standard procedure. The membrane was incubated with the anti-FAM19A5 antibody (e.g., 1-65, 2 μg/ml, 1-65-scFv-rabbit Fc-SSS), and the antigen-antibody complexes were detected with the appropriate secondary antibody conjugated with horse-radish peroxidase (anti-rabbit IgG (Fc specific)-HRP, 1:4000 dilution). For the ELISA assay, the following protocol was used. FAM19A5 fragment F1-F6 (diluted to 1 μg/mL in 50 mM carbonate buffer (Biosesang) or to 20 μg/mL for high concentration analysis) were used to coat the wells of 96-well immuno plates (Thermo Scientific) (100 μL/well) overnight at 4° C. and then subsequently washed twice in 1×PBS. The plates were then blocked with the blocking buffer (100 μL/well) for 1 hour at room temperature. […] The absorption value of each of the wells was detected at 492 nm using a 96-well microplate reader (Molecular Device). […]
(In general: In an ELISA, binding on a coated surface is turned into a signal by an enzyme label.)

In a further experiment the target is FAM19A1 (UniProt Q7Z5A9 20-133). Kind of experiment: Western blot on extracts of HEK293T cells stably transfected with FAM19A family genes. The protocol:
(§1) HEK293T cells stably transfected with genes encoding the FAM19A family of proteins were lysed in buffer containing 50 mM Tris-HCL (pH 6.8), 2% SDS, 10% glycerol, 100 mM mercaptoethanol, and bromophenol blue. Whole-cell extracts were resolved on SDS-polyacrylamide (PAGE) gels and transferred to nitrocellulose blotting membranes in a Bio-Rad Trans-Blot electrophoresis apparatus (Hercules, CA, USA). The blots were blocked in Tris-buffered saline containing 0.3% Tween 20 and 5% skim milk, and incubated with anti-FAM19A5 antibody at room temperature for 3 h. They were then washed three times with TBS/0.3% Tween 20. Antibody binding was subsequently detected by incubation with secondary antibodies linked to horseradish peroxidase (Jackson ImmunoReserch Laboratories, West Grove, PA, USA). The blots were washed three times, and immunoreactive bands were visualized by exposure to X-ray film for 0.5 or 10 min, after application of GE healthcare ECL reagents (Buckinghamshire, UK). […] Cells were then blocked with 3% BSA and 0.1% Triton X-100 in PBS for 30 min at room temperature. Primary antibody (the anti-FAM19A5 antibody 1-65) was applied overnight at 4° C. After several washes with PBS, appropriate secondary antibodies were applied for 30 min. Subsequently, the cells were washed, mounted, and observed under a fluorescence or confocal microscope (LSM700; Zeiss, Goettingen, Germany). Nuclei were stained with Hoechst 33342.
In general terms: A western blot detects proteins with antibodies after separation by electrophoresis.

A further experiment deals with T2, FAM19A2 (UniProt Q8N3H0 31-131, limits assumed).
T2 construct: Member of the group other FAM19A subfamily proteins; also called other FAM19A subfamily proteins; other proteins in the FAM19A subfamily
The experiment is described as above. The protocol:
as §1

The next experiment concerns the target T3, FAM19A3 (UniProt Q7Z5A8 31-133, limits assumed).
T3 construct: Member of the group other FAM19A subfamily proteins; also called other FAM19A subfamily proteins; other proteins in the FAM19A subfamily
The description is as above. The protocol: as §1

In the next experiment the target is T4, FAM19A4 (UniProt Q96LR4 36-140, limits assumed).
T4 construct: Member of the group other FAM19A subfamily proteins; also called other FAM19A subfamily proteins; other proteins in the FAM19A subfamily
Described as above. The protocol:
as §1

For a further experiment, the target named is T5, FAM19A5-M4.
T5 construct: also called FAM19A5 mutant M4
T5 FAM19A5 mutant: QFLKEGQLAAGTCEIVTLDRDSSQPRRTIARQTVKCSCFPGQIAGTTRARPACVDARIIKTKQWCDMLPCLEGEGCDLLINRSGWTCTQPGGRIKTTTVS
Nature of the experiment: ELISA on phage-displayed FAM19A5 mutants; y axis without label; IgG only bars 0.02 to 0.2.

The next experiment addresses T6, FAM19A5-M1.
T6 construct: also called FAM19A5 mutant M1
T6 FAM19A5 mutant: T5 FAM19A5 mutant with I15V, V16I, T17A, L18A, D19H, V34A, K35R, S37A, F39R, P40K
The experiment is described as above.

The next experiment concerns the target T7, FAM19A5-M3.
T7 construct: also called FAM19A5 mutant M3
T7 FAM19A5 mutant: T5 FAM19A5 mutant with R27I, T28E, I29E, A30R, R31S, V34A, K35R, S37A, F39R, P40K
Described as above.

In the next experiment the target is T8, FAM19A5-M5.
T8 construct: also called FAM19A5 mutant M5
T8 FAM19A5 mutant: T5 FAM19A5 mutant with V34A, K35R, S37A, F39R, P40K, A49N, R50K, A52S
The description is as above.

The next experiment has as its target T9, FAM19A5-M2.
T9 construct: also called FAM19A5 mutant M2
T9 FAM19A5 mutant: T5 FAM19A5 mutant with D21C, S22C, S23N, Q24K, P25N, V34A, K35R, S37A, F39R, P40K
Described as above.

T2 sequence (Q8N3H0 31-131 limits assumed): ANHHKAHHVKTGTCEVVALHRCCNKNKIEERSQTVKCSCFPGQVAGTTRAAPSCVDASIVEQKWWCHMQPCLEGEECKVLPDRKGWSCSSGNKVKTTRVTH
T4 sequence (Q96LR4 36-140 limits assumed): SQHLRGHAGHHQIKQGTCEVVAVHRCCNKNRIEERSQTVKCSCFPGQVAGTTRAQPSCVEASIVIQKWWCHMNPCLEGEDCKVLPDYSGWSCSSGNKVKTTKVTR
T1 sequence (peptide, as listed by the source mutant): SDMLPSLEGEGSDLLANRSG
T3 sequence (Q7Z5A8 31-133 limits assumed): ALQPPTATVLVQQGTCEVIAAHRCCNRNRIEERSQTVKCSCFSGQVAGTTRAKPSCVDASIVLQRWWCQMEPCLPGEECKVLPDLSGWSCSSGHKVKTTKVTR

B1: chimeric anti-FAM19A5-IgG2/4 monoclonal antibody (1-65) (antibody, V domains shown)
VH: AVTLDESGGGLQTPGGALSLVCKASGFTFSSYQMGWVRQAPGKGLEWVGVINKSGSDTSYGSAVKGRATISRDNGQSTVRLQLNNLRAEDTGTYFCAKGSASYITAATIDAWGHGTEVIVSS
VL: ALTQPSSVSANPGETVKITCSGGGSSGYGYGWYQQKSPSSAPLTVIYWNDKRPSDIPSRFSGSKSGSTHTLTITGVQAEDEAVYFCGNDDYSSDSGYVGVFGAGTTLTVL
notes: Chicken-derived variable domains; also called anti-FAM19A5 antibody 1-65; Anti-FAM19A5 (1-65)
With B1, the binding result is “no binding” in experiment [1]; “no binding” with FAM19A1; “no binding” in the experiment with FAM19A2; “no binding” with FAM19A3; “no binding” in the experiment with FAM19A4; “binds” with FAM19A5-M4. Besides, the binding result with FAM19A5-M1, in the experiment with FAM19A5-M3, in the experiment with FAM19A5-M5 and with FAM19A5-M2 was “binds” in each case.
